Reference: patent US20250276075A1, “METHODS OF TREATING AXL-EXPRESSING CANCERS WITH ANTI-AXL ANTIBODIES, ANTIBODY FRAGMENTS AND THEIR IMMUNOCONJUGATES” (BIOATLA, INC., priority 2020, published 2025)
Substitutions are numbered along the chain they refer to. Names may count otherwise.

Tests used:
[1] = biological target: Axl (UniProt P30530); experiment: ELISA, 1:3 dilution
[2] = biological target: Axl (UniProt P30530); experiment: ELISA, 1:9 dilution
[3] = biological target: T1, Axl (Homo sapiens, UniProt P30530); experiment: Affinity ELISA of CPE mutant antibodies for binding to Axl at pH 6.0 over pH 7.4; settings: heavy chain variable region mutants; for Affinity ELISA CPE mutant ratio (1:3, pH 6.0/7.4): 1:3 dilution; for Affinity ELISA CPE mutant ratio (1:9, pH 6.0/7.4): 1:9 dilution
T1 sequence (P30530 26-451 limits assumed): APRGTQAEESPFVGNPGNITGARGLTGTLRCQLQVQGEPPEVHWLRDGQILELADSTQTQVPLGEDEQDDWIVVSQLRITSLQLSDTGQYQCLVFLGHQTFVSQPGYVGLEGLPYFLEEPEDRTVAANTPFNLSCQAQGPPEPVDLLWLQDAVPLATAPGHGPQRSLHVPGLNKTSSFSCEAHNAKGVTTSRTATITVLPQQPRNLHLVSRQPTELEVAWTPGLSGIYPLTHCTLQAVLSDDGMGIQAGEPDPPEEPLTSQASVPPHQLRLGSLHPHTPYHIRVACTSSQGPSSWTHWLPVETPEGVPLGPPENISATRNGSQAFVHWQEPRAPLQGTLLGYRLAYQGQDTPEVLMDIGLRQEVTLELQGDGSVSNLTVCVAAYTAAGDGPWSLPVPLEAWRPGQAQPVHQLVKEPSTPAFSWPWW
In short: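 Single-point mutant anti-Axl antibody library (CPE) screened by ELISA for binding at pH 6.0 versus pH 7.4, at 1:3 and 1:9 antibody dilutions, in serum with FLAG-tag detection and carbonate (Krebs-Ringer) buffer. Selection criterion: pH 6.0/pH 7.4 binding ratio ≥1.5 at either dilution.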

B1: HC-Y104P (antibody, V domains shown)
VH: EVQLVQSGAEVKKPGATVKISCKVSGYSFTGHTMNWIRQPPGKGLEWIGLIKPSNGGTSYNQKFKGRVTISADKSISTAYLQWSSLKASDTAMYYCAHGHYESPFAMDYWGQGTLVTVSS
VL: DIQMTQSPSSLSASVGDRVTITCKASQDVSSAVAWYQQKPGQAPRLLIYWASTRHTGVPSRFSGSGSGTEFTLTISSLQPDDFATYYCQEHFSTPLTFGQGTKVEIK
Affinity ELISA CPE mutant ratio (1:3, pH 6.0/7.4) [1]: 2.54
Affinity ELISA CPE mutant ratio (1:9, pH 6.0/7.4) [2]: 2.42
Affinity ELISA CPE mutant ratio (1:3, pH 6.0/7.4) [3]: 2.535
Affinity ELISA CPE mutant ratio (1:9, pH 6.0/7.4) [3]: 2.416

B2: HC-W110N (antibody, V domains shown)
VH: B1 VH with P104Y, W110N
VL: B1 VL
Affinity ELISA CPE mutant ratio (1:3, pH 6.0/7.4) [1]: 4.3
Affinity ELISA CPE mutant ratio (1:9, pH 6.0/7.4) [2]: 0.8
Affinity ELISA CPE mutant ratio (1:3, pH 6.0/7.4) [3]: 4.304
Affinity ELISA CPE mutant ratio (1:9, pH 6.0/7.4) [3]: 0.800

B3: HC-W110A (antibody, V domains shown)
VH: B1 VH with P104Y, W110A
VL: B1 VL
Affinity ELISA CPE mutant ratio (1:3, pH 6.0/7.4) [1]: 7.91
Affinity ELISA CPE mutant ratio (1:9, pH 6.0/7.4) [2]: 1.2
Affinity ELISA CPE mutant ratio (1:3, pH 6.0/7.4) [3]: 7.909
Affinity ELISA CPE mutant ratio (1:9, pH 6.0/7.4) [3]: 1.198

B4: HC-E102D (antibody, V domains shown)
VH: B1 VH with E102D, P104Y
VL: B1 VL
Affinity ELISA CPE mutant ratio (1:3, pH 6.0/7.4) [1]: 2.67
Affinity ELISA CPE mutant ratio (1:9, pH 6.0/7.4) [2]: 2.85
Affinity ELISA CPE mutant ratio (1:3, pH 6.0/7.4) [3]: 2.674
Affinity ELISA CPE mutant ratio (1:9, pH 6.0/7.4) [3]: 2.853

B5: HC-A106D (antibody, V domains shown)
VH: B1 VH with P104Y, A106D
VL: B1 VL
Affinity ELISA CPE mutant ratio (1:3, pH 6.0/7.4) [1]: 3.39
Affinity ELISA CPE mutant ratio (1:9, pH 6.0/7.4) [2]: 2.51
Affinity ELISA CPE mutant ratio (1:3, pH 6.0/7.4) [3]: 3.389
Affinity ELISA CPE mutant ratio (1:9, pH 6.0/7.4) [3]: 2.506

B6: HC-G111H (antibody, V domains shown)
VH: B1 VH with P104Y, G111H
VL: B1 VL
Affinity ELISA CPE mutant ratio (1:3, pH 6.0/7.4) [1]: 1.06
Affinity ELISA CPE mutant ratio (1:9, pH 6.0/7.4) [2]: 1.79
Affinity ELISA CPE mutant ratio (1:3, pH 6.0/7.4) [3]: 1.058
Affinity ELISA CPE mutant ratio (1:9, pH 6.0/7.4) [3]: 1.786

B7: HC-F105T (antibody, V domains shown)
VH: B1 VH with P104Y, F105T
VL: B1 VL
Affinity ELISA CPE mutant ratio (1:3, pH 6.0/7.4) [1]: 3.46
Affinity ELISA CPE mutant ratio (1:9, pH 6.0/7.4) [2]: 4.02
Affinity ELISA CPE mutant ratio (1:3, pH 6.0/7.4) [3]: 3.463
Affinity ELISA CPE mutant ratio (1:9, pH 6.0/7.4) [3]: 4.021

B8: HC-W110T (antibody, V domains shown)
VH: B1 VH with P104Y, W110T
VL: B1 VL
Affinity ELISA CPE mutant ratio (1:3, pH 6.0/7.4) [1]: 7.47
Affinity ELISA CPE mutant ratio (1:9, pH 6.0/7.4) [2]: 1.37
Affinity ELISA CPE mutant ratio (1:3, pH 6.0/7.4) [3]: 7.469
Affinity ELISA CPE mutant ratio (1:9, pH 6.0/7.4) [3]: 1.372

B9: HC-A106Y (antibody, V domains shown)
VH: B1 VH with P104Y, A106Y
VL: B1 VL
Affinity ELISA CPE mutant ratio (1:3, pH 6.0/7.4) [1]: 3.29
Affinity ELISA CPE mutant ratio (1:9, pH 6.0/7.4) [2]: 3.06
Affinity ELISA CPE mutant ratio (1:3, pH 6.0/7.4) [3]: 3.293
Affinity ELISA CPE mutant ratio (1:9, pH 6.0/7.4) [3]: 3.060

B10: HC-E102G (antibody, V domains shown)
VH: B1 VH with E102G, P104Y
VL: B1 VL
Affinity ELISA CPE mutant ratio (1:3, pH 6.0/7.4) [1]: 1.8
Affinity ELISA CPE mutant ratio (1:9, pH 6.0/7.4) [2]: 2.68
Affinity ELISA CPE mutant ratio (1:3, pH 6.0/7.4) [3]: 1.798
Affinity ELISA CPE mutant ratio (1:9, pH 6.0/7.4) [3]: 2.677

B11: HC-M107F (antibody, V domains shown)
VH: B1 VH with P104Y, M107F
VL: B1 VL
Affinity ELISA CPE mutant ratio (1:3, pH 6.0/7.4) [1]: 20.6
Affinity ELISA CPE mutant ratio (1:9, pH 6.0/7.4) [2]: 1.09
Affinity ELISA CPE mutant ratio (1:3, pH 6.0/7.4) [3]: 20.579
Affinity ELISA CPE mutant ratio (1:9, pH 6.0/7.4) [3]: 1.090

B12: HC-A106G (antibody, V domains shown)
VH: B1 VH with P104Y, A106G
VL: B1 VL
Affinity ELISA CPE mutant ratio (1:3, pH 6.0/7.4) [1]: 1.52
Affinity ELISA CPE mutant ratio (1:9, pH 6.0/7.4) [2]: 2.2
Affinity ELISA CPE mutant ratio (1:3, pH 6.0/7.4) [3]: 1.519
Affinity ELISA CPE mutant ratio (1:9, pH 6.0/7.4) [3]: 2.196

B13: HC-M107E (antibody, V domains shown)
VH: B1 VH with P104Y, M107E
VL: B1 VL
Affinity ELISA CPE mutant ratio (1:3, pH 6.0/7.4) [1]: 2.16
Affinity ELISA CPE mutant ratio (1:9, pH 6.0/7.4) [2]: 1.36
Affinity ELISA CPE mutant ratio (1:3, pH 6.0/7.4) [3]: 2.164
Affinity ELISA CPE mutant ratio (1:9, pH 6.0/7.4) [3]: 1.357

B14: HC-W110L (antibody, V domains shown)
VH: B1 VH with P104Y, W110L
VL: B1 VL
Affinity ELISA CPE mutant ratio (1:3, pH 6.0/7.4) [1]: 8.22
Affinity ELISA CPE mutant ratio (1:9, pH 6.0/7.4) [2]: 0.924
Affinity ELISA CPE mutant ratio (1:3, pH 6.0/7.4) [3]: 8.220
Affinity ELISA CPE mutant ratio (1:9, pH 6.0/7.4) [3]: 0.924

B15: HC-E102I (antibody, V domains shown)
VH: B1 VH with E102I, P104Y
VL: B1 VL
Affinity ELISA CPE mutant ratio (1:3, pH 6.0/7.4) [1]: 2.02
Affinity ELISA CPE mutant ratio (1:9, pH 6.0/7.4) [2]: 1.7
Affinity ELISA CPE mutant ratio (1:3, pH 6.0/7.4) [3]: 2.016
Affinity ELISA CPE mutant ratio (1:9, pH 6.0/7.4) [3]: 1.696

B16: HC-A106L (antibody, V domains shown)
VH: B1 VH with P104Y, A106L
VL: B1 VL
Affinity ELISA CPE mutant ratio (1:3, pH 6.0/7.4) [1]: 21.5
Affinity ELISA CPE mutant ratio (1:9, pH 6.0/7.4) [2]: 1.61
Affinity ELISA CPE mutant ratio (1:3, pH 6.0/7.4) [3]: 21.538
Affinity ELISA CPE mutant ratio (1:9, pH 6.0/7.4) [3]: 1.613

B17: HC-F105S (antibody, V domains shown)
VH: B1 VH with P104Y, F105S
VL: B1 VL
Affinity ELISA CPE mutant ratio (1:3, pH 6.0/7.4) [1]: 3.9
Affinity ELISA CPE mutant ratio (1:9, pH 6.0/7.4) [2]: 4.54
Affinity ELISA CPE mutant ratio (1:3, pH 6.0/7.4) [3]: 3.898
Affinity ELISA CPE mutant ratio (1:9, pH 6.0/7.4) [3]: 4.545

B18: HC-F105V (antibody, V domains shown)
VH: B1 VH with P104Y, F105V
VL: B1 VL
Affinity ELISA CPE mutant ratio (1:3, pH 6.0/7.4) [1]: 2.43
Affinity ELISA CPE mutant ratio (1:9, pH 6.0/7.4) [2]: 2.8
Affinity ELISA CPE mutant ratio (1:3, pH 6.0/7.4) [3]: 2.429
Affinity ELISA CPE mutant ratio (1:9, pH 6.0/7.4) [3]: 2.801

B19: HC-E102A (antibody, V domains shown)
VH: B1 VH with E102A, P104Y
VL: B1 VL
Affinity ELISA CPE mutant ratio (1:3, pH 6.0/7.4) [1]: 1.54
Affinity ELISA CPE mutant ratio (1:9, pH 6.0/7.4) [2]: 1.69
Affinity ELISA CPE mutant ratio (1:3, pH 6.0/7.4) [3]: 1.538
Affinity ELISA CPE mutant ratio (1:9, pH 6.0/7.4) [3]: 1.687

B20: HC-W110R (antibody, V domains shown)
VH: B1 VH with P104Y, W110R
VL: B1 VL
Affinity ELISA CPE mutant ratio (1:3, pH 6.0/7.4) [1]: 5.99
Affinity ELISA CPE mutant ratio (1:9, pH 6.0/7.4) [2]: 1.06
Affinity ELISA CPE mutant ratio (1:3, pH 6.0/7.4) [3]: 5.991
Affinity ELISA CPE mutant ratio (1:9, pH 6.0/7.4) [3]: 1.062

B21: HC-F105N (antibody, V domains shown)
VH: B1 VH with P104Y, F105N
VL: B1 VL
Affinity ELISA CPE mutant ratio (1:3, pH 6.0/7.4) [1]: 2.36
Affinity ELISA CPE mutant ratio (1:9, pH 6.0/7.4) [2]: 2.64
Affinity ELISA CPE mutant ratio (1:3, pH 6.0/7.4) [3]: 2.364
Affinity ELISA CPE mutant ratio (1:9, pH 6.0/7.4) [3]: 2.642

B22: HC-W110D (antibody, V domains shown)
VH: B1 VH with P104Y, W110D
VL: B1 VL
Affinity ELISA CPE mutant ratio (1:3, pH 6.0/7.4) [1]: 3.72
Affinity ELISA CPE mutant ratio (1:9, pH 6.0/7.4) [2]: 1.11
Affinity ELISA CPE mutant ratio (1:3, pH 6.0/7.4) [3]: 3.716
Affinity ELISA CPE mutant ratio (1:9, pH 6.0/7.4) [3]: 1.112

B23: HC-E102H (antibody, V domains shown)
VH: B1 VH with E102H, P104Y
VL: B1 VL
Affinity ELISA CPE mutant ratio (1:3, pH 6.0/7.4) [1]: 2.08
Affinity ELISA CPE mutant ratio (1:9, pH 6.0/7.4) [2]: 2.31
Affinity ELISA CPE mutant ratio (1:3, pH 6.0/7.4) [3]: 2.076
Affinity ELISA CPE mutant ratio (1:9, pH 6.0/7.4) [3]: 2.315

B24: HC-E102M (antibody, V domains shown)
VH: B1 VH with E102M, P104Y
VL: B1 VL
Affinity ELISA CPE mutant ratio (1:3, pH 6.0/7.4) [1]: 2.08
Affinity ELISA CPE mutant ratio (1:9, pH 6.0/7.4) [2]: 2.36
Affinity ELISA CPE mutant ratio (1:3, pH 6.0/7.4) [3]: 2.079
Affinity ELISA CPE mutant ratio (1:9, pH 6.0/7.4) [3]: 2.363

B25: HC-W110P (antibody, V domains shown)
VH: B1 VH with P104Y, W110P
VL: B1 VL
Affinity ELISA CPE mutant ratio (1:3, pH 6.0/7.4) [1]: 6.49
Affinity ELISA CPE mutant ratio (1:9, pH 6.0/7.4) [2]: 2.15
Affinity ELISA CPE mutant ratio (1:3, pH 6.0/7.4) [3]: 6.490
Affinity ELISA CPE mutant ratio (1:9, pH 6.0/7.4) [3]: 2.148
